Data as given in article PMC4908412, “β-arrestin-1 contributes to brown fat function and directly interacts with PPARα and PPARγ” (Scientific Reports, 2016).
Substitutions are numbered along the chain they refer to. Names may count otherwise.

B1: synthetic β-arrestin-1 peptide harboring the LQERLIKKL sequence (peptide)
chain: PAPEDKKPLTRLQERLIKKLG
B2: 9-cis-retinoic acid receptor α-ligand binding domain (amino acids 196–435) (domain or fragment, human, UniProt P19793 223-462, looked up)
chain: TSSANEDMPVERILEAELAVEPKTETYVEANMGLNPSSPNDPVTNICQAADKQLFTLVEWAKRIPHFSELPLDDQVILLRAGWNELLIASFSHRSIAVKDGILLATGLHVHRNSAHSAGVGAIFDRVLTELVSKMRDMQMDKTELGCLRAIVLFNPDSKGLSNPAEVEALREKVYASLEAYCKHKYPEQPGRFAKLLLRLPALRSIGLKCLEHLFFFKLIGDTPIDTFLMEMLEAPHQMT
notes: also called RXRα-LBD; source: E. coli BL21 (DE3)-CodonPlus, purified
B3: PPARα-LBD D371A (domain or fragment, human, UniProt Q07869 196-468, looked up)
chain: EDSETADLKSLAKRIYEAYLKNFNMNKVKARVILSGKASNNPPFVIHDMETLCMAEKTLVAKLVANGIQNKEAEVRIFHCCQCTSVETVTELTEFAKAIPGFANLDLNDQVTLLKYGVYEAIFAMLSSVMNKDGMLVAYGNGFITREFLKSLRKPFCDIMEPKFDFAMKFNALELADSDISLFVAAIICCGDRPGLLNVGHIEKMQEGIVHVLRLHLQSNHPDDIFLFPKLLQKMADLRQLVTEHAQLVQIIKKTESDAALHPLLQEIYRDMY
notes: also called PPARα M2; source: E. coli BL21 (DE3)-CodonPlus, purified
B4: PPARγ-LBD L311G/N312G (domain or fragment, human, UniProt P37231-2 204-477, looked up)
chain: LNPESADLRALAKHLYDSYIKSFPLTKAKARAILTGKTTDKSPFVIYDMNSLMMGEDKIKFKHITPLQEQSKEVAIRIFQGCQFRSVEAVQEITEYAKSIPGFVNLDGGDQVTLLKYGVHEIIYTMLASLMNKDGVLISEGQGFMTREFLKSLRKPFGDFMEPKFEFAVKFNALELDDSDLAIFIAVIILSGDRPGLLNVKPIEDIQDNLLQALELQLKLNHPESSQLFAKLLQKMTDLRQIVTEHVQLLQVIKKTETDMSLHPLLQEIYKDLY
notes: also called PPARγ M1; source: E. coli BL21 (DE3)-CodonPlus, purified
B5: PPARγ-LBD D380A (domain or fragment, human, UniProt P37231-2 204-477, looked up)
chain: B4 chain with G108L, G109N, D177A
notes: also called PPARγ M2; source: E. coli BL21 (DE3)-CodonPlus, purified
B6: PPARγ-ligand binding domain (amino acids 204–477) (domain or fragment, human, UniProt P37231-2 204-477, looked up)
chain: B4 chain with G108L, G109N
modifications: biotinylated for biolayer interferometry; 15N-labeled for NMR
notes: The His tag is used for capture in the pulldown; also called PPARγ-LBD; wild-type PPARγ; source: E. coli BL21 (DE3)-CodonPlus, purified; not shown: His6, N-terminal, kept
B7: PPARα-ligand binding domain (amino acids 196–468) (domain or fragment, human, UniProt Q07869 196-468, looked up)
chain: B3 chain with A176D
modifications: biotinylated for biolayer interferometry; 15N-labeled for NMR
notes: The His tag is used for capture in the pulldown; also called PPARα-LBD; wild-type PPARα; source: E. coli BL21 (DE3)-CodonPlus, purified; not shown: His6, N-terminal, kept

Columns and labels:
Conditions in all cases: both partners purified
[1] = molecular target: B6; experiment: BLI; Octet Red 96; 50 μg/ml biotinylated PPARα-LBD or PPARγ-LBD (or their mutants) immobilised on streptavidin biosensors; analyte β-arrestin-1, βarr1M or peptides in solution (single 2 μM or serial dilutions, β-arrestin-1 0.5–32 μM); 25 °C; 2:1 heterogeneous ligand model and steady-state analysis
[2] = molecular target: B7; experiment: as above
[3] = molecular target: B6; experiment: as above; remark: listed apart in the source
[4] = molecular target: B7; experiment: as above; remark: listed apart in the source
[5] = molecular target: B6; experiment: BLI; competition: PPARα/γ-LBD and β-arrestin-1 with or without increasing amounts of RXRα-LBD (Supplementary Fig. 5b,c)
[6] = molecular target: B7; experiment: as above
[7] = molecular target: B6; experiment: BLI; RXRα-LBD with PPARα/γ-LBD; the tables and the methods name PPAR-LBD as ligand and RXRα-LBD as analyte, the legend of Fig. 2e,f says 50 μg/ml RXRα-LBD loaded on SAs with serial dilutions of PPARα/γ-LBD; 25 °C; 2:1 heterogeneous ligand model and steady-state analysis
[8] = molecular target: B7; experiment: as above
[9] = molecular target: T1, β-arrestin-1 (recombinant rattus β-arrestin-1) (rat, UniProt P29066 1-418); experiment: BLI; Octet Red 96; 50 μg/ml biotinylated PPARα-LBD or PPARγ-LBD (or their mutants) immobilised on streptavidin biosensors; analyte β-arrestin-1, βarr1M or peptides in solution (single 2 μM or serial dilutions, β-arrestin-1 0.5–32 μM); 25 °C; 2:1 heterogeneous ligand model and steady-state analysis
T1 construct: β-arrestin-1, rat (rattus), recombinant; also called βarr1; wild-type β-arrestin-1
T1 sequence (P29066 whole entry, the tested form may be a part): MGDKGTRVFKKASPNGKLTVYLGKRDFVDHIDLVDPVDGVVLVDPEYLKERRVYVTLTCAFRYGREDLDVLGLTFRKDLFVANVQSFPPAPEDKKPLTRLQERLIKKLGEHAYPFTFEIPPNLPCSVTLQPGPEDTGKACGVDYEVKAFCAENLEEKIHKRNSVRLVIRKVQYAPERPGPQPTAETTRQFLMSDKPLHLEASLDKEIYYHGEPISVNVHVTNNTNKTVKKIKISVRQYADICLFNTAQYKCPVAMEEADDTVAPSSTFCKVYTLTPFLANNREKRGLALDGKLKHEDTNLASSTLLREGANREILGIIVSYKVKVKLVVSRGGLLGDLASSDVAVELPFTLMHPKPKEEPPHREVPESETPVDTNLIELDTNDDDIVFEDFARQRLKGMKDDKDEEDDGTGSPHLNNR

[10] = molecular target: T1, β-arrestin-1 (recombinant rattus …); experiment: as above; remark: listed apart in the source
[11] = molecular target: T2, β-arrestin-1 double mutant with L100A and L104A (rat, UniProt P29066 1-418, L100A | L104A); experiment: as above
T2 construct: β-arrestin-1 with L100A and L104A; also called βarr1M; source: purified
T2 sequence (P29066 whole entry L100A/L104A): as the sequence (P29066 whole entry, the tested form may be a part) above, with L100A, L104A counted along it

For B1, the maximum response [1] was 0.22 nm, the maximum response [2] was 0.27 nm and the “KD1 (2:1 HL model)” value [3] was 557 µM. For the same binder, the “KD2 (2:1 HL model)” value [3] was 521 µM, the Kd [3] was 560000 nM and the “koff1 (2:1 HL model)” value [3] was 0.00323 S^−1. The “koff2 (2:1 HL model)” value [3] was 0.132 S^−1, the “kon1 (2:1 HL model)” value [3] was 5.8 M^−1S^−1 and the “kon2 (2:1 HL model)” value [3] was 2.53 M^−1S^−1. For the same binder, the “KD1 (2:1 HL model)” value [4] was 42 µM, the “KD2 (2:1 HL model)” value [4] was 60.3 µM and the Kd [4] was 56000 nM. For the same binder, the “koff1 (2:1 HL model)” value [4] was 0.000907 S^−1, the “koff2 (2:1 HL model)” value [4] was 0.161 S^−1 and the “kon1 (2:1 HL model)” value [4] was 21.6 M^−1S^−1. The “kon2 (2:1 HL model)” value [4] was 2660 M^−1S^−1.

Binder B2 has an IC50 [5] of 850 nM, an IC50 [6] of 880 nM and a Kd [7] of 71 nM. It also gave a Kd [8] of 29 nM.

B3 was tested, and the Kd [9] was 4100 nM.

With B4 the Kd [10] was 1900 nM.

In the case of B5, the Kd [10] is reported as 1500 nM.

Work on B6 yielded a Kd [10] of 1400 nM.

B7 showed a Kd [9] of 3600 nM and a Kd [11] of 3900 nM.
